Molecular target: CD26 protein (recombinant human CD26) (human) (UniProt P27487)
Assay: BLI (Octet QKe), CD26 amine-coupled on AR2G sensor, antibody at 181.8 nM

Response: 0.0395
B1: 17G108 (anti-CD26-CD3 chimeric bispecific antibody derived from No. 160 mouse antibody) (bispecific antibody)
chain: DIVMTQAAPSVPVTPGESVSISCRSSKSLLHSNGNTYLYWFLQRPGQSPQLLISQMSNLASGIPDRFSGSGSGTAFTLRISRVEAEDVGVYYCMQHLEYPFTFGSGTKLEIKGGGGSGGGGSGGGGSEVQLQQSGAELVKPGASVKLSCTASGFNIKDNYMNWVKQRPEQGLEWIGRIDPANGNPKYDPKFQGKATITADTSSNTAYLQLSSLTSEDTAVYYCTRWIYYYGSRYEWYFDVWGAGTTVTVSSGGGGSDVQLVQSGAEVKKPGASVKVSCKASGYTFTRYTMHWVRQAPGQGLEWIGYINPSRGYTNYADSVKGRFTITTDKSTSTAYMELSSLRSEDTATYYCARYYDDHYCLDYWGQGTTVTVSSGGGGSGGGGSGGGGSDIVLTQSPATLSLSPGERATLSCRASQSVSYMNWYQQKPGKAPKRWIYDTSKVASGVPARFSGSGSGTDYSLTINSLEAEDAATYYCQQWSSNPLTFGGGTKVEIK

Source: patent US20250179208A1
